Measured values from patent publication US20210140973A1 (NITTO BOSEKI, published 2021).

How the values were obtained:
[1] = target: T1, human IgG4 purified from human serum (human); experiment: SPR (Biacore), IgG4 immobilized on chip by amino coupling, antibody as analyte
T1 construct: also called IgG4 antigen; human IgG4-sensitized latex
Description: MaI4-08 and MaI4-09-produced antibodies, and, as a control, MaI4-05-produced antibody and 1 mg/mL of HP6025 were adjusted to 1 mg/mL. In addition, 1 mg/mL of IgG4 was prepared from the one purified from human serum. According to the protocol of Sumika Chemical Analysis Service, Ltd., IgG4 was immobilized onto a chip by an amino coupling method, and a sensorgram was obtained by a Biacore model. The obtained binding rate constant (kₐ), dissociation rate constant (kd), and dissociation constant (KD) were as shown in Table 11.

[2] = target: T2, Myeloma human IgG1 (EMD Millipore) (human); experiment: indirect ELISA, antigen coated 1 µg/mL, antibody 1 µg/mL; no-antigen well 0.042
T2 construct: Bought myeloma protein
Description: (§1) Myeloma human IgA1 (Abcam), Myeloma human IgA2 (Abcam), Myeloma human IgD (Abcam), Myeloma human IgE (Abcam), Myeloma human IgM (Abcam), Myeloma human IgG1 (EMD Millipore), Myeloma human IgG2 (EMD Millipore), Myeloma human IgG3 (Sigma-Aldrich Co. LLC), and Myeloma human IgG4 (EMD Millipore) were adjusted to 1 μg/mL with PBS(−). The adjusted samples were added to a 96-well plate (Thermo Fisher Scientific) by 100 μL, respectively. The plate was shaken by a shaker under the condition of 700 rpm and 25.0° C. for 1 hour. The solutions were discarded, the plate was cleaned with 300 μL of PBST 3 times, 100 μL of a blocking buffer solution was added to each well, and then the plate was stored at 4° C. one night or more. Similarly, after cleaning with PBST, the MaI4-08 and MaI4-09-produced antibodies were adjusted to 1 μg/mL with an antibody dilute buffer solution and then added to each well by 100 μL, and the plate was shaken under the same condition as mentioned above. Similarly, after cleaning with PBST, a HRP labeled anti-mouse IgG antibody (Abcam) diluted 4000-fold with an antibody dilute buffer solution was added to each well by 100 μL, and the plate was shaken under the same condition as mentioned above. Similarly, after cleaning with PBST, 100 μL of SureBlue (KPL) was added. 5 or 3 minutes later, 100 μL of 0.5 mol/L sulfuric acid (Wako Pure Chemical Corporation) was added to each of MaI4-08 and MaI4-09. Absorbance at a wavelength of 450 nm was measured with a microplate reader (BIO-RAD Laboratories, Inc.). As a result, a strong signal was given to Myeloma human IgG4 as compared to the other samples (Tables 2 and 3, and FIGS. 2 and 3).

[3] = target: Myeloma human IgA2 (Abcam) (human, UniProt P01877-1 1-340); experiment: as above
Description: as §1

[4] = target: Myeloma human IgD (Abcam) (human, UniProt P01880-1 1-384); experiment: as above
Description: as §1

[5] = target: Myeloma human IgA1 (Abcam) (human, UniProt P01876-1 1-353); experiment: as above
Description: as §1

[6] = target: Myeloma human IgM (Abcam) (human, UniProt P01871-1 1-453); experiment: as above
Description: as §1

[7] = target: Myeloma human IgE (Abcam) (human, UniProt P01854-1 1-428); experiment: as above
Description: as §1

[8] = target: T3, Myeloma human IgG2 (EMD Millipore) (human); experiment: as above
T3 construct: Bought myeloma protein
Description: as §1

[9] = target: T4, Myeloma human IgG3 (Sigma-Aldrich Co. LLC) (human); experiment: as above
T4 construct: Bought myeloma protein
Description: as §1

[10] = target: T5, Myeloma human IgG4 (EMD Millipore) (human); experiment: as above
T5 construct: Bought myeloma protein
Description: as §1

[11] = target: T2, Myeloma human IgG1 (EMD Millipore); experiment: latex agglutination inhibition; 3000 mg/dL myeloma protein as free sample against IgG4-sensitized latex, read on the IgG4 calibration curve
Description: (§2) In a case where the MaI4-08-produced antibody or the MaI4-09-produced antibody was used as an anti-human IgG4 mouse monoclonal antibody in the first reagent, specificity to human IgG4 was evaluated. As a sample, Myeloma human IgG4 solution (EMD Millipore) adjusted to 3000 mg/dL was used. In addition, as control samples, Myeloma human IgG1 solution (EMD Millipore), Myeloma human IgG2 solution (EMD Millipore), and Myeloma human IgG3 solution (Sigma-Aldrich Co. LLC) prepared similarly to the above were used. A saline solution was used as a blank sample. For the measurement of human IgG4 concentrations, 120 μL of the first reagent and 120 μL of the second reagent were reacted with 3 μL of a sample using Hitachi type 7180 automatic analyzer, and change amount of absorbance in the range of photometric points of 18 to 28 (corresponding to 1 minute to 4 minutes after addition of R2) was measured at a main wavelength of 570 nm and a complementary wavelength of 800 nm by a two-point end method (n=2). A calibration curve was created from the results of Table 8 and the human IgG4 concentration in a sample was calculated therefrom.

[12] = target: T3, Myeloma human IgG2 (EMD Millipore); experiment: as above
Description: as §2

[13] = target: T4, Myeloma human IgG3 (Sigma-Aldrich Co. …); experiment: as above
Description: as §2

[14] = target: T5, Myeloma human IgG4 (EMD Millipore); experiment: as above
Description: as §2

T1 sequence (constant, as listed by the source limits assumed): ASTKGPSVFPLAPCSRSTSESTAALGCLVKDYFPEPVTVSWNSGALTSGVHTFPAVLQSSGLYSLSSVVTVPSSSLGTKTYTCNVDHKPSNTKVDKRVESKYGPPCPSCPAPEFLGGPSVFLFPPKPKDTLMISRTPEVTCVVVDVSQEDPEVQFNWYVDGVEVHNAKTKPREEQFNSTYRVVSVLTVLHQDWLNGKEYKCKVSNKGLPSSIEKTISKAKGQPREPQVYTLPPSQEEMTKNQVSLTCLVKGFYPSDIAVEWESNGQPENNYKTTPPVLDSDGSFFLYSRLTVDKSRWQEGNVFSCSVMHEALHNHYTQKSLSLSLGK
T4 sequence (constant, as listed by the source limits assumed): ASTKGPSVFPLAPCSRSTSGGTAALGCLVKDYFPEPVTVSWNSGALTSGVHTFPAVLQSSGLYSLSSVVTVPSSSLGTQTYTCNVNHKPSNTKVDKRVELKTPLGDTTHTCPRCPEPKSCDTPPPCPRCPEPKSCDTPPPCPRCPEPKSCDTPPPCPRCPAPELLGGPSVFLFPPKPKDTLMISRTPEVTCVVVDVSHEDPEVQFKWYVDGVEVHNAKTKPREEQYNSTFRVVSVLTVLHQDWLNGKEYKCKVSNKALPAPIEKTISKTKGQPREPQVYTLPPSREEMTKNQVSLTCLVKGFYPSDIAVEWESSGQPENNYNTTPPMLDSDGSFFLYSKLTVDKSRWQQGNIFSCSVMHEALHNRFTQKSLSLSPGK
T2 sequence (constant, as listed by the source limits assumed): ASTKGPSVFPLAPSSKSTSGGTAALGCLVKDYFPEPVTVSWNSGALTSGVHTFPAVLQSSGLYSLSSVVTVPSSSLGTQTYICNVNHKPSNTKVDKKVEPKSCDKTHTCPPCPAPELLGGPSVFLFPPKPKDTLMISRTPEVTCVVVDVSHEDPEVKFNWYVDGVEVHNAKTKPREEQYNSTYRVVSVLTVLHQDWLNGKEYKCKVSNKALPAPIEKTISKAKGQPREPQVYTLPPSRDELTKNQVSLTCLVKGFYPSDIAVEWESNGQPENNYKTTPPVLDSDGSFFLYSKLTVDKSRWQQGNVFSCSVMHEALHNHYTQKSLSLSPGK
T3 sequence (constant, as listed by the source limits assumed): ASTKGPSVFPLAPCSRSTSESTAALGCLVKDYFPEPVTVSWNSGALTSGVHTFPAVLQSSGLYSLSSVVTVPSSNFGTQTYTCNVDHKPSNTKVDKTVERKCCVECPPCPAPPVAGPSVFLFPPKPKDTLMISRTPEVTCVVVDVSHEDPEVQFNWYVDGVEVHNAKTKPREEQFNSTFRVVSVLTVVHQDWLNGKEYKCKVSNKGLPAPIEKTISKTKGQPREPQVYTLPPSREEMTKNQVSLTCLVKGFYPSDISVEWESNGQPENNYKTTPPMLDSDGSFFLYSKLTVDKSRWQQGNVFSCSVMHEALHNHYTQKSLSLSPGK
Myeloma human IgE (Abcam), sequence (P01854 other isoform, or with tags, fused parts or gaps): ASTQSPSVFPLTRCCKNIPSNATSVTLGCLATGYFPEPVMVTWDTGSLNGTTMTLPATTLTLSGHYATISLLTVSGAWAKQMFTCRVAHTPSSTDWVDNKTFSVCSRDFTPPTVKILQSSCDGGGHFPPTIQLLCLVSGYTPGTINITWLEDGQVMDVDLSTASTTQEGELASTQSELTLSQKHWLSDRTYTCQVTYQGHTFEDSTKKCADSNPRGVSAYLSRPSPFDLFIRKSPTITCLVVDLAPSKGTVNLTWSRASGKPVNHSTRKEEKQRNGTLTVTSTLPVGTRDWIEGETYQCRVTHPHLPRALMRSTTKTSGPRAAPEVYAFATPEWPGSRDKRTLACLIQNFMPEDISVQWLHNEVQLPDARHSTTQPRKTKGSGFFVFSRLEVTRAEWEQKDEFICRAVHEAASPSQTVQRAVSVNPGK
Myeloma human IgA1 (Abcam), sequence (P01876 other isoform, or with tags, fused parts or gaps): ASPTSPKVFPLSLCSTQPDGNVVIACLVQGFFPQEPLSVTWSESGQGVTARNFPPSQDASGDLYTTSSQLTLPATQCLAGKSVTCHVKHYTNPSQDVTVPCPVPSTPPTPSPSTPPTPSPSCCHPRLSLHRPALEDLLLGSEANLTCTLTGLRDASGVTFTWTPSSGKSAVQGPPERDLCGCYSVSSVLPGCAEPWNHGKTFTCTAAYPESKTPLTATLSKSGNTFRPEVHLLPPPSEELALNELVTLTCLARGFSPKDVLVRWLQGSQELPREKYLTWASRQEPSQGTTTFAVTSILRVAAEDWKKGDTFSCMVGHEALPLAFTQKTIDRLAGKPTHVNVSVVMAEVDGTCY
Myeloma human IgA2 (Abcam), sequence (P01877 other isoform, or with tags, fused parts or gaps): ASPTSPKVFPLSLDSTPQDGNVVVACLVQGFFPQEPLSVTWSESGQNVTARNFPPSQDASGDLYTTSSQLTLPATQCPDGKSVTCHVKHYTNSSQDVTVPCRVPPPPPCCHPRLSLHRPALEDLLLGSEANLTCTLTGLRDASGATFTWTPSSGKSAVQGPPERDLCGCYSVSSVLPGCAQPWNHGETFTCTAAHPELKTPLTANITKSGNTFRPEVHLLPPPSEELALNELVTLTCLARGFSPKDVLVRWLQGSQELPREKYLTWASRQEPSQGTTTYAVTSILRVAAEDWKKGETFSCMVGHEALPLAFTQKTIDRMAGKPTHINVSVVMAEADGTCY
Myeloma human IgD (Abcam), sequence (P01880 other isoform, or with tags, fused parts or gaps): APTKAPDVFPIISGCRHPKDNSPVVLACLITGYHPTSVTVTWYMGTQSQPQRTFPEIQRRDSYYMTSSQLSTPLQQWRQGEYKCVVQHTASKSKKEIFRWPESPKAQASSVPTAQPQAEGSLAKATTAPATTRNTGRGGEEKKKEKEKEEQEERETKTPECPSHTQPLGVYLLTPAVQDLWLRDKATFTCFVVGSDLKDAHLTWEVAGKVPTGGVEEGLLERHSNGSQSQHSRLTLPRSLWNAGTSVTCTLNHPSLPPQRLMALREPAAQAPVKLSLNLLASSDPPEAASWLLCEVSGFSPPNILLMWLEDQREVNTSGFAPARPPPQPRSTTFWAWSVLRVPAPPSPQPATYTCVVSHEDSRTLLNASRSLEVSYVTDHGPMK
Myeloma human IgM (Abcam), sequence (P01871 other isoform, or with tags, fused parts or gaps): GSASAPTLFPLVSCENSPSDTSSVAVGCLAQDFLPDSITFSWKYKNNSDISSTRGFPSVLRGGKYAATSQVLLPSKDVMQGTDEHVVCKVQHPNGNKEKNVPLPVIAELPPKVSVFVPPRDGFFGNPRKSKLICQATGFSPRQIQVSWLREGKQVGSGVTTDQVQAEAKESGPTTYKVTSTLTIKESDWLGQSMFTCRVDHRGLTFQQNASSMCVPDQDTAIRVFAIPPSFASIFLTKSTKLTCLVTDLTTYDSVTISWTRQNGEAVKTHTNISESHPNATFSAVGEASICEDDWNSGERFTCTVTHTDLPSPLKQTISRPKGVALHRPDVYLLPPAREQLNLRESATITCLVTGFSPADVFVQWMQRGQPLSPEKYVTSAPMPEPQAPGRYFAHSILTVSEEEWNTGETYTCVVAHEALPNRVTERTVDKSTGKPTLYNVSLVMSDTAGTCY

B1: MaI4-08-produced antibody (antibody, IgG1, V domains shown)
VH: EVQLQQSGPELVKPGTSVKMSCKASGYIFTSYILHWVKQKPGQGLEWIAYINPYNDGTKYKEKFKGKGTLTSDKSSSTAYMELSSLTSEDSAVYYCARSGGGYGNYAWFAYWGPGTLVTVST
VL: DIQMTQSPSSLSASLGERVSLTCRASQDIGSSLNWLQQEPDGTIKRLIYATSSLDSGVPKRFSGSRSGSDYSLTISSLESEDFVDYYCLQYASYPPTFGAGTKLELK
notes: Purified on protein G from hybridoma culture supernatant; POD-labelled for the Western blots
Kd [1]: 406 pM | koff [1]: 0.000223 s⁻¹ | kon [1]: 549000 M⁻¹ s⁻¹ | absorbance at 450 nm [2]: 0.048 | absorbance at 450 nm [3]: 0.043 | absorbance at 450 nm [4]: 0.042 | absorbance at 450 nm [5]: 0.043 | absorbance at 450 nm [6]: 0.042 | absorbance at 450 nm [7]: 0.041 | absorbance at 450 nm [8]: 0.047 | absorbance at 450 nm [9]: 0.044 | absorbance at 450 nm [10]: 2.04 | Measured value (apparent human IgG4 concentration) [11]: 10.1 mg/dL | Measured value (apparent human IgG4 concentration) [12]: 12.8 mg/dL | Measured value (apparent human IgG4 concentration) [13]: 4.1 mg/dL | Measured value (apparent human IgG4 concentration) [14]: 1090 mg/dL
